A short description of the series: protein stability index of a GFP-peptide fusion (GPS, HEK-293T) (PSI 1-6); higher = more stable. The conditions noted are these: c terminus: a fixed tail appended.

For 73 sequences, protein stability index results are on record in the supplement of paper PMC10567573.

± gives the standard deviation.
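Also: 24-mer peptide tiles fused after GFP, lentivirally expressed, FACS-sorted into six equal bins by GFP/DsRed ratio, decoded by Illumina sequencing, PSI is the read-weighted mean bin number.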

On to SSKEEQKLIATSNKPAVKLLYNRS [KCTD10], for which the protein stability index (treatment: DMSO) stood at 3.9 ± 0.27 and the protein stability index (treatment: MLN4924 1 uM, 8 h) amounted to 4.08 ± 0.48.
For MSTEEQYRIRQVNIYYYLEDDSMS [EFHC1] the same measures were 2.19 ± 0.26 and 2.13 ± 0.3.
For EFDDGSGSVLRIQPLRTPRDEAIY [PTPRD] the same measures were 3.47 ± 0.11 and 3.88 ± 0.54.
For SSPRGMVRVCDLLLKKKPPQQQHH [ANKRD17], in that order: 3.2 ± 0.23 and 3.28 ± 0.13.
As for GNQLQLNQHCLDTAFNFFKMAVSR [BRF1], the protein stability index stood at 2.25 ± 0.36 (treatment: DMSO) and 1.96 ± 0.28 (treatment: MLN4924 1 uM, 8 h).
For GLLLRGAVDGILHMFTPKLDKMLD [SLC6A17] the same measures were 2.35 ± 0.47 and 2.43 ± 0.66.
For GRGDEASEEGQNGSSPKSKTKWTK [ADD1], in that order: 5.22 ± 0.16 and 5.36 ± 0.36.
For VFSFGKHYWELDVDNSCDWALGVC [TRIM43], in that order: 2.54 ± 0.085 and 2.54 ± 0.39.
As for FLCAAGDAGEESRVQVLKNEVRRG [TIAF1], the protein stability index is, setting by setting: (treatment: DMSO) 4.18 ± 0.31; (treatment: MLN4924 1 uM, 8 h) 4.22 ± 0.11.
With SNMCINNTLVCNGLQNCVYPWDEN [NETO1], the protein stability index amounted to 3.29 ± 0.082 (treatment: DMSO) and 3.36 ± 0.44 (treatment: MLN4924 1 uM, 8 h).
For SRCRNSYTEQELKPLTLEALGHLG [DLC1] the same measures were 2.85 ± 0.32 and 2.99 ± 0.21.
For the sequence ELVPHPETAPTTVDRTHALMKKIG [CRYL1], the protein stability index runs as follows: (treatment: DMSO) 4.31 ± 0.23; (treatment: MLN4924 1 uM, 8 h) 4.48 ± 0.35.
For DQKVIELVKKYGTKQWTLIAKHLK [MYBL2], in that order: 2.77 ± 0.91 and 3.12 ± 0.49.
For the sequence DEGGFTCFFRDHSYQEEAAMELKV [MOG], the protein stability index is, setting by setting: (treatment: DMSO) 3.57 ± 0.26; (treatment: MLN4924 1 uM, 8 h) 3.7 ± 0.34.
As for LDAVQVLSGVSQLLPKSRENYLNR [FCHO1], the protein stability index is, setting by setting: (treatment: DMSO) 3.13 ± 0.22; (treatment: MLN4924 1 uM, 8 h) 3.25 ± 0.18.
For PWGFRLQGGKDFNVPLSISRLTPG [PDLIM7], the protein stability index came to 2.66 ± 0.18 (treatment: DMSO) and 2.66 ± 0.29 (treatment: MLN4924 1 uM, 8 h).
For the sequence GSVADTVARVLRGCLENMPEADCI [PLK2], the protein stability index runs as follows: (treatment: DMSO) 2.88 ± 0.4; (treatment: MLN4924 1 uM, 8 h) 2.94 ± 0.33.
For MEIFMEEMREIRRKLRELQLRNCL [BEX3], in that order: 3.28 ± 0.41 and 2.52 ± 0.97.
Take RCEELEDARYKLHHHLHKTLREIT [TEKT4]: the protein stability index (treatment: DMSO) came to 2.81 ± 0.29 and the protein stability index (treatment: MLN4924 1 uM, 8 h) is 2.8 ± 0.25.
For the sequence DSSLHWSSSYSPETFRQQFRQFGY [ZNF396], the protein stability index by setting is: (treatment: DMSO) 2.66 ± 0.31; (treatment: MLN4924 1 uM, 8 h) 2.56 ± 0.15.
For MEKYERIRVVGRGAFGIVHLCLRK [NEK8], in that order: 2.09 ± 0.21 and 2.33 ± 0.27.
Regarding FGAVVRWAEAECQRQQLPVTFGNK [BTBD1], the protein stability index by setting is: (treatment: DMSO) 2.57 ± 0.3; (treatment: MLN4924 1 uM, 8 h) 2.84 ± 0.18.
Take GEGRSRGSANDYKDTLGKGSSLSA [KRT71]: the protein stability index reads like this: (treatment: DMSO) 4.65 ± 0.52; (treatment: MLN4924 1 uM, 8 h) 4.96 ± 0.35.
For TLICRKLGGVKKSATLRSFEGLMG [TPD52L3], in that order: 2.06 ± 0.16 and 2.34 ± 0.33.
For PAVRQRVIEEAKTAFLLNIQLFEE [HMOX1] the same measures were 2.66 ± 0.37 and 3.17 ± 0.26.
For ELRDISSMAMEYFDEKIVPILKRK [FBXO28] the same measures were 2.78 ± 0.36 and 3 ± 0.45.
As for DCSEEYLERQLQAEFIESGQYRAN [TAF7L], the protein stability index reads like this: (treatment: DMSO) 4.09 ± 0.35; (treatment: MLN4924 1 uM, 8 h) 4.3 ± 0.12.
For the sequence LDEPNAESDYTYSSSYEQFNGELP [SRPK2], the protein stability index runs as follows: (treatment: DMSO) 4.78 ± 0.28; (treatment: MLN4924 1 uM, 8 h) 4.62 ± 0.19.
Take APEYFEKNEPYLEAACNDVDRWPA [DENND6A]: the protein stability index turned out to be 4.59 ± 0.29 (treatment: DMSO) and 4.47 ± 0.38 (treatment: MLN4924 1 uM, 8 h).
VVAILAAACLLQLDGLIQQCGETM [GMCL1]: the protein stability index (treatment: DMSO) stood at 3.23 ± 0.42 and the protein stability index (treatment: MLN4924 1 uM, 8 h) was 2.92 ± 0.39.
For GAPSPGSSDVSTAGTGASRSSHSS [ELF3], the protein stability index is, setting by setting: (treatment: DMSO) 5.33 ± 0.29; (treatment: MLN4924 1 uM, 8 h) 5.32 ± 0.14.
For LQANDVFHKQQWFNCIRAAIAPFQ [NET1], in that order: 2.14 ± 0.26 and 2.24 ± 0.28.
As to SRASAARVGQLQEALNERHSIINA [LRRC45], the protein stability index reads like this: (treatment: DMSO) 4.01 ± 0.38; (treatment: MLN4924 1 uM, 8 h) 3.97 ± 0.19.
For EREEITTKKRKLGKNPDVDTSFLP [FAM50A], in that order: 4.63 ± 0.35 and 4.79 ± 0.24.
For AQVPDTRWSRVGGQRFYSRVLSPL the same measures were 2.41 ± 0.69 and 2.75 ± 0.43.
ARFITDFLDNGYGHCLLDKPEAPL [ADAMTS4] returned a protein stability index (treatment: DMSO) of 2.19 ± 0.2 and a protein stability index (treatment: MLN4924 1 uM, 8 h) of 2.01 ± 0.22.
DLAWMITFYVRFFLTYVPLLGLKA [FADS1] came in with a protein stability index (treatment: DMSO) of 3.03 ± 0.11 and a protein stability index (treatment: MLN4924 1 uM, 8 h) of 3.62 ± 0.23.
For QFRMAQEEARRNRLMRDMAQLRLQ [SMG5], in that order: 2.95 ± 0.21 and 3.25 ± 0.26.
Take RFLRMLLRLADEFGVAVVITNQVV [RAD51]: the protein stability index was 2.46 ± 0.45 (treatment: DMSO) and 2.45 ± 0.84 (treatment: MLN4924 1 uM, 8 h).
The sequence ELSNFKSQKVLGLNEDPLKWWSDR [ZBED1] came in with a protein stability index (treatment: DMSO) of 2.73 ± 0.17 and a protein stability index (treatment: MLN4924 1 uM, 8 h) of 2.97 ± 0.26.
For GIQQLLQAEKRAAEKVSEARKRKN [ATP6V1G1], the protein stability index is, setting by setting: (treatment: DMSO) 4.12 ± 0.62; (treatment: MLN4924 1 uM, 8 h) 3.84 ± 0.74.
For WGKRKNKPKMNYEKLSRGLRYYYD [ETS2] the same measures were 2.52 ± 0.26 and 2.51 ± 0.43.
Regarding GLFVPSLLCGAAFGRLVANVLKSY [CLCN6], the protein stability index runs as follows: (treatment: DMSO) 2.2 ± 0.55; (treatment: MLN4924 1 uM, 8 h) 2.37 ± 0.64.
HTTGPTGSAPNSPMALLTIGSSSE [TFE3] had a protein stability index (treatment: DMSO) of 4.53 ± 0.12 and a protein stability index (treatment: MLN4924 1 uM, 8 h) of 4.54 ± 0.23.
For EIVVTISWAKSIPGFSSLSLSDQM [ESRRA], in that order: 3.19 ± 0.5 and 2.59 ± 0.22.
For WYQVRCLFQSPLFAKAGDTLSGTC [CARM1] the same measures were 2.77 ± 0.72 and 2.35 ± 0.53.
For LHPDRDPGNPSLHSRFVELSEAYR [DNAJC4], the protein stability index is 3.37 ± 0.22 (treatment: DMSO) and 3.51 ± 0.19 (treatment: MLN4924 1 uM, 8 h).
For SEVTELRRVLQGLEIELQSQLSMK [KRT16], in that order: 2.33 ± 0.2 and 2.33 ± 0.31.
For RQFEFSVDSFQIILDSLLFFYDCS [TENT5C] the same measures were 3.06 ± 0.57 and 3.04 ± 0.61.
For MVEDDSRKEMTAACTPRRRIINLT [MLH1], in that order: 3.95 ± 0.059 and 3.93 ± 0.29.
GSLKSVEVREPALRPAKRELRGAE [SPSB4] showed a protein stability index (treatment: DMSO) of 4.98 ± 0.37 and a protein stability index (treatment: MLN4924 1 uM, 8 h) of 5.03 ± 0.14.
As for VQITGQPNILFYASTVLKSVGFQS [SLC2A12], the protein stability index reads like this: (treatment: DMSO) 3.12 ± 0.57; (treatment: MLN4924 1 uM, 8 h) 2.58 ± 0.45.
For MHSFPPLLLLLFWGVVSHSFPATL [MMP1], in that order: 3.14 ± 0.31 and 3.12 ± 0.25.
In the case of TEGAFGLYRGLAPNFMKVIPAVSI [SLC25A25], the protein stability index reads like this: (treatment: DMSO) 1.88 ± 0.51; (treatment: MLN4924 1 uM, 8 h) 2.39 ± 0.66.
For LSRAYDGTTYLPGIVGLNNIKAND [USP39] the same measures were 3.45 ± 0.24 and 3.54 ± 0.32.
Take RPELGAALGIYGAPYAAAAAAQSY [IRX6]: the protein stability index reads like this: (treatment: DMSO) 2.73 ± 0.12; (treatment: MLN4924 1 uM, 8 h) 2.92 ± 0.46.
For NGRGELVESLKRFCASTRLPPTPL [AUP1] the same measures were 3.18 ± 0.38 and 2.94 ± 0.5.
As to NSSVWNSHLQTNYSKTFQRSNVDF [NECAB1], the protein stability index runs as follows: (treatment: DMSO) 2.65 ± 0.18; (treatment: MLN4924 1 uM, 8 h) 2.77 ± 0.32.
For RSKSGSEEVLCDSCIGNKQKAVKS [TRIM29], in that order: 4.96 ± 0.31 and 5.19 ± 0.11.
As to AEEHREKLLKQMRILWKKIQENQR [TRIM43], the protein stability index was 2.46 ± 0.24 (treatment: DMSO) and 2.21 ± 0.18 (treatment: MLN4924 1 uM, 8 h).
Turning to DGLPDLGHAQDLMDGLPPGDSNQL [CTNNB1], the protein stability index was found to be 5.33 ± 0.26 (treatment: DMSO) and 5.4 ± 0.19 (treatment: MLN4924 1 uM, 8 h).
PSASLGKASSRKPFGILSPNVLCS [FBXO34]: the protein stability index stood at 2.71 ± 0.23 (treatment: DMSO) and 2.8 ± 0.11 (treatment: MLN4924 1 uM, 8 h).
Take LNDQNLCIPASSSFVYGAVPIGAS [GAN]: the protein stability index by setting is: (treatment: DMSO) 3.07 ± 0.16; (treatment: MLN4924 1 uM, 8 h) 3.13 ± 0.17.
With PEELRKVFITYSMDTAMEVVKFVN [TRAF3IP2], the protein stability index reads like this: (treatment: DMSO) 2.24 ± 0.46; (treatment: MLN4924 1 uM, 8 h) 2.08 ± 0.37.
For SAHPVEVFSFDLHEPLSKERVEAF [TMEM175] the same measures were 3.82 ± 0.19 and 3.82 ± 0.3.
For NVMTQSFGAVNLSSPSNMLPVRPQ [CLINT1], in that order: 3.86 ± 0.2 and 3.99 ± 0.51.
TKVGSFMIRESETKKGFYSLSVRH [SLA]: the protein stability index was found to be 2.68 ± 0.37 (treatment: DMSO) and 2.66 ± 0.69 (treatment: MLN4924 1 uM, 8 h).
In the case of SLEQANRSLQLRIQELELQAQIHG [TFE3], the protein stability index came to 3.51 ± 0.33 (treatment: DMSO) and 3.52 ± 0.19 (treatment: MLN4924 1 uM, 8 h).
For PTLSCEKYLTYDQLRKQKKKTGKS [ELOA2] the same measures were 3.98 ± 0.19 and 4.57 ± 0.24.
Turning to SLNPDGYEKAYEGGSELGGWSLGR [CPXM2], the protein stability index (treatment: MLN4924 1 uM, 8 h) worked out at 4.29 ± 0.39.
Consider KATASEAVDCKWYIRAPPRSKIYL [NETO1], for which the protein stability index runs as follows: (treatment: DMSO) 2.23 ± 0.54; (treatment: MLN4924 1 uM, 8 h) 2.25 ± 0.32.
EEEDREEEDENGLPRRRGLRKKKT [NEUROD6]: the protein stability index came out at 5.53 ± 0.59 (treatment: DMSO) and 5.52 ± 0.37 (treatment: MLN4924 1 uM, 8 h).
For GDPRPKIVWNKKGKKVSNQRFEVI [PTPRD] the same measures were 2.94 ± 0.24 and 3.46 ± 0.64.
